# B1: ZC3H11A(wt)-HA [human] / PABPN1-Flag [not stated] (parent)
# chain 1: MPNQGEDCYFFFYSTCTKGDSCPFRHCEAAIGNETVCTLWQEGRCFRQVCRFRHMEIDKKRSEIPCYWENQPTGCQKLNCAFHHNRGRYVDGLFLPPSKTVLPTVPESPEEEVKASQLSVQQNKLSVQSNPSPQLRSVMKVESSENVPSPTHPPVVINAADDDEDDDDQFSEEGDETKTPTLQPTPEVHNGLRVTSVRKPAVNIKQGECLNFGIKTLEEIKSKKMKEKSKKQGEGSSGVSSLLLHPEPVPGPEKENVRTVVRTVTLSTKQGEEPLVRLSLTERLGKRKFSAGGDSDPPLKRSLAQRLGKKVEAPETNIDKTPKKAQVSKSLKERLGMSADPDNEDATDKVNKVGEIHVKTLEEILLERASQKRGELQTKLKTEGPSKTDDSTSGARSSSTIRIKTFSEVLAEKKHRQQEAERQKSKKDTTCIKLKIDSEIKKTVVLPPIVASRGQSEEPAGKTKSMQEVHIKTLEEIKLEKALRVQQSSESSTSSPSQHEATPGARRLLRITKRTGMKEEKNLQEGNEVDSQSSIRTEAKEASGETTGVDITKIQVKRCETMREKHMQKQQEREKSVLTPLRGDVASCNTQVAEKPVLTAVPGITRHLTKRLPTKSSQKVEVETSGIGDSLLNVKCAAQTLEKRGKAKPKVNVKPSVVKVVSSPKLAPKRKAVEMHAAVIAAVKPLSSSSVLQEPPAKKAAVAVVPLVSEDKSVTVPEAENPRDSLVLPPTQSSSDSSPPEVSGPSSSQMSMKTRRLSSASTGKPPLSVEDDFEKLIWEISGGKLEAEIDLDPGKDEDDLLLELSEMIDS
# chain 2: MAAAAAAAAAAGAAGGRGSGPGRRRHLVPGAGGEAGEGAPGGAGDYGNGLESEELEPEELLLEPEPEPEPEEEPPRPRAPPGAPGPGPGSGAPGSQEEEEEPGLVEGDPGDGAIEDPELEAIKARVREMEEEAEKLKELQNEVEKQMNMSPPPGNAGPVIMSIEEKMEADARSIYVGNVDYGATAEELEAHFHGCGSVNRVTILCDKFSGHPKGFAYIEFSDKESVRTSLALDESLFRGRQIKVIPKRTNRPGISTTDRGFPRARYRARTTNYNSSRSRFYSGFNSRPRGRVYRGRARATSWYSPY
# Variants of: B1
# Assay: co-IP (PABPN1-Flag bait), Western blot quantification
# Conditions: with PABPN1-Flag; three individual experiments; read off a plot
row,ratio to parent,Variant
1,0.17,chain 1 C66A
2,0.57,chain 1 C37A
3,0.24,chain 1 C8A
